According to the supplement of paper PMC10567573:

B1: CSTF3 (parent)
chain: YVPEKVKKAEKKLEENPYDLDAWS

Variants of: B1
Assay: protein stability index of a GFP-peptide fusion (GPS, HEK-293T) (PSI 1-6); higher = more stable
Settings: c terminus: a fixed tail appended
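Note: lentivirally expressed fusions sorted by FACS into six bins by GFP to DsRed ratio, PSI derived from sequencing read proportions per bin multiplied by bin number.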

Protein stability index: each site, then its substitutions
E14: L 2.35 | T 2.26 | H 2.92 | F 1.88 | P 3.04 | A 2.61 | W 3.09 | V 2.25 | I 3.95 | Q 2.02 | S 3.27 | Y 2.2 | R 2.36 | N 2.18 | G 2.17 | K 2.88 | C 3.58
Y18: I 2.47 | V 1.45 | W 1.61 | G 2.35 | F 2.55 | E 1.93 | R 2.77 | P 2.71 | C 2.88 | Q 2.17 | T 2.27 | K 3.33 | S 2.46 | D 5.04 | H 2.12 | A 2.62 | M 2.58 | N 2.38 | L 2.15
Y1: F 2.56 | P 5.24 | H 3.9 | A 5.5 | L 4.43 | K 5.08 | T 4.88 | S 5.23 | M 4.81 | C 4.97 | V 4.97 | N 5.14 | I 4.63 | Q 5.31 | D 5.2 | R 5.17 | E 5.59 | W 4.24 | G 5.31
K5: E 1.77 | N 3.5 | F 2.19 | D 1.9 | L 2.07 | T 2.93 | S 3.44 | I 2.95 | H 2.28 | W 2.45 | C 2.71 | M 2.04 | P 2.55 | G 2.25 | Q 2.73 | A 1.62 | V 2.32 | Y 3.04 | R 2.72
K8: H 2.27 | C 2.34 | W 3.37 | Y 1.72 | E 2.9 | R 2.54 | M 2.97 | A 3.58 | D 2.48 | T 2.37 | N 2.92 | I 3.65 | V 2.21 | F 3.78 | S 3.26 | Q 3.12
K7: F 2.26 | D 2.54 | V 1.91 | H 3.08 | S 2.47 | Q 2 | A 2.17 | E 2.56 | R 2.73 | Y 2.48 | G 1.91 | I 2.17 | T 2.94 | W 2.89 | N 3.83 | L 3.11 | P 3.13 | C 2.12 | M 1.52
K11: N 2.67 | C 2.65 | M 2.42 | F 2.06 | Y 2.72 | I 3.43 | D 2.07 | V 3.77 | P 2.65 | E 2.54 | L 2.31 | Q 3.48 | S 2.66 | G 2.01 | W 2.4 | R 2.94 | A 2.32
E4: G 2.58 | T 2.56 | C 2.43 | N 2.19 | W 2.28 | K 3.35 | Q 3.41 | H 2.44 | R 2.8 | P 2.3 | S 1.62 | M 1.9 | I 2.8 | F 2.49 | V 2.69 | A 3.03 | Y 3.67
K12: W 2.9 | M 2.6 | P 3.32 | E 2.41 | S 3.79 | A 2.82 | I 2.7 | F 3.31 | L 2.95 | G 2.68 | T 3.28 | H 3.19 | N 2.92 | V 2.59 | C 2.49 | Y 2.72 | R 2.88 | Q 3.16 | D 2.9
E10: V 2.18 | A 1.93 | N 3.24 | G 2.97 | M 1.55 | H 3.67 | S 2.56 | K 3.68 | Q 3.08 | I 1.86 | D 1.92 | Y 2.86 | F 2.32 | W 1.98 | C 3.32 | T 1.74 | R 2.63 | P 2
E15: C 2.68 | R 3.05 | Q 3.42 | F 2.55 | W 2.8 | D 2.86 | M 2.99 | K 3.45 | P 2.47 | H 2.05 | G 2.88 | L 3.23 | S 3.34 | T 1.58 | V 3.54 | A 3.94 | Y 3.42
N16: M 1.81 | W 2.08 | Y 2.56 | F 3.03 | G 2.54 | S 2.65 | C 1.67 | T 2.27 | A 2.04 | L 3.68 | E 3.13 | R 2.64 | K 3.09 | Q 2.24 | I 1.05 | D 2.73 | P 1.67
D19: T 2.34 | Q 3.34 | H 1.58 | P 2.59 | E 2.57 | L 1.62 | G 3.95 | A 2.2 | M 2.14 | I 2.28 | R 2.04 | K 3.97 | S 2.91 | N 2.54
A9: C 2.11 | D 1.65 | L 2.32 | M 2.16 | F 3.1 | T 2.66 | P 4.02 | S 2.27 | H 2.85 | V 2.64 | E 1.96 | W 3.31 | Y 3.21 | I 2.59 | Q 2.11 | R 3.47 | G 3.46 | K 2.59
P3: T 2.35 | D 2.69 | F 1.89 | E 2.7 | Y 3.21 | S 2.23 | K 2.15 | R 2.44 | G 2.28 | A 2.27 | V 1.97 | M 1.79 | H 2.47 | W 1.76 | N 2.12 | I 1.99 | L 1.74 | C 2.46 | Q 1.89
V2: H 2.25 | M 3.92 | W 3.94 | S 4.67 | L 4.51 | K 4.25 | Q 4.07 | C 2.32 | T 3.18 | R 4.48 | G 4.5 | Y 4.37 | F 4.31 | N 4.47 | I 2.33 | E 4.84 | D 4.2 | A 1.92 | P 3.87
P17: F 1.95 | I 2.32 | A 2.45 | M 2.48 | L 3.01 | H 2.04 | S 2.37 | T 3.18 | G 2.39 | W 2.5 | K 1.32 | Q 1.22 | C 2.34 | Y 2.43 | D 3.55 | R 2.29 | E 2.63 | V 1.43 | N 2.52
V6: D 2.22 | Y 2.75 | M 2.66 | Q 2.35 | I 3.77 | N 2.72 | H 2.04 | G 2.04 | E 2 | P 1.26 | S 2.15 | T 1.58 | W 2.57 | R 1.35
L13: F 2.02 | Q 2.36 | K 2.5 | Y 1.87 | S 3.52 | D 2.22 | I 3.1 | R 2.67 | V 2.21 | H 2.49 | M 3.19 | A 2.25 | P 2.46 | T 1.92 | W 2.45 | G 2.23 | E 2.86
